Experimental data published in patent publication US20160032001A1 (APEXIGEN, published 2016).
Where a chain is given by its changes, count along the chain named.

B1: clone 91 rabbit anti-RANKL antibody (antibody, V domains shown)
VH: QSLEESGGRLVKPDETLTLTCTVSGSSLYNYEINWVRQAPGKGLEWIGYIDVGSGTWYASWAKGRFTISKTSTTVDLKITSPTTEDTATYFCTRKYNPMDLWGPGTLVTVSS
VL: DMTQTPASVEVAVGGTVTIKCQASQNIGSNLAWYQQKPGQPPKLLIYSTSTVASGVPSRFKGSGFGTQFTLTISGVQCDDAATYYCQQGYSAGNVNNPFGGGTEVVVK
B2: clone 7 rabbit anti-RANKL antibody (antibody, V domains shown)
VH: QEQLKESGGGLVTPGGTLTLTCTASGFSLTTNGMSWVRQAPGKGLEWIGYIYSGGSPYYANWAKGRFTISKTSSTTVDLKMTSLTTEDTATYFCARHLSGGGWYLDIWGPGTLVTVSL
VL: DMTQTPASVEVAVGGTVTINCQASQNIGSNLAWYQQKPGQPPKLLIYGASTLASGVSSRFKGSGSGTQFTFTISDVECTDPATYYCQQAYSISNVDNPFGGGTEVVVK
B3: clone 37 rabbit anti-RANKL antibody (antibody, V domains shown)
VH: QSVEESGGRLVTPGTPLTLTCTVSGFSLSNDVMSWVRQAPGKGLEWIGYIWSGGSPYYANWAKGRFTISKSSSTTVDLKITSPTTEDTAAYFCARGFGSSGLNIWGPGTLVTVSL
VL: B1 VL with N26S, P41S, T49A, T51I, V52L, F65S, A92V, V95I, N96D, P98A
B4: clone 130 rabbit anti-RANKL antibody (antibody, V domains shown)
VH: QSVEESGGRLVTPGTPLTLTCTVSGFSLSSGVVSWVRQAPGKGLEWIGYAWSGGATYYASWAKGRFTISKSSTTVDLKITSPTTADTATYFCARGYNGMDPWGPGTLVTVSS
VL: DMTQTPASVEVAVGGTVTIKCQASQNIGSNLAWYQQKPGQPPKLLIYKASTLASGVPSRFRGSGSGTEFTLAISDLECADAATYYCQQGYTTKDLVNPFGGGTEVVVK
B5: clone 68 rabbit anti-RANKL antibody (antibody, V domains shown)
VH: QEQLKESGGGLVKPDESLTLTCTASGFSLSSNGMSWARQAPGKGLEWIGYIYAGSSPYYANWAKGRFTISKTSSTTVDLKVTSLTTEDTATYFCARHASGGGWYLAIWGPGTLVTVSL
VL: DMIQTPASVEVAVGGTVTIGCQASQSIGSNLGWYQQKPGQPPKLLIYSASTLASGVSSRFKGSGSGTEFTLTISDVECDDAATYYCQQAYSVSNVDNAFGGGTEVVVK
B6: clone 147 rabbit anti-RANKL antibody (antibody, V domains shown)
VH: B4 VH with L17Q, S30T, G31D, A50T, S52N, I68F, S71T, A85E
VL: B4 VL with Y47S, R61K, D94N, L95V
B7: clone 227 rabbit anti-RANKL antibody (antibody, V domains shown)
VH: B1 VH with S26F
VL: B1 VL
B8: clone 220 rabbit anti-RANKL antibody (antibody, V domains shown)
VH: QSLEESGGRLVTPGTPLTLTCTVSGFSLSKYEINWVRQAPGKGLEWIGYIDVGSGTWYASWAKGRFTISKTSTTVALRITSPTTEDTATYFCSRQYNPMDLWGPGTLVTVSS
VL: B1 VL with V11A, P41R, T49A, V52L, F65S, A92V, P98A
B9: clone 238 rabbit anti-RANKL antibody (antibody, V domains shown)
VH: QEQLKESGGGLVTPGGTLTLTCTASGFSLNTNAMSWVRQAPGKGLEWIGYIYSGGSPYYANWAKGRFTISRTSTTVHLKMTSLTTEDTATYFCASHTSGGGWYLDIWGPGTLVTVSL
VL: B2 VL with T3I, A49T, S65F, P81A, I92T, N94K, V95I, P98A
B10: clone 246 rabbit anti-RANKL antibody (antibody, V domains shown)
VH: QSVKESGGGLVTPGGTLTLTCTASGLSLSGNGMSWVRQAPGKGLEWIGYIYSGSSPYYASWAKGRFTISKTSSTTVDLKMTSLTTEDTATYFCARHTSGGGWYLDIWGPGTLVTVSL
VL: B5 VL with G20N, G32A, E68D, F69Y, D79T, V92I, D96E, A98P
B11: clone 256 rabbit anti-RANKL antibody (antibody, V domains shown)
VH: B8 VH
VL: B1 VL with V11A, P41R, T49A, V52L, F65S, A92V, P98A
B12: clone 270 rabbit anti-RANKL antibody (antibody, V domains shown)
VH: B3 VH with N30S, E45D, S55R
VL: B1 VL with S29Y, S48G, T49A, V52L, F65S, A92V, G93S, V95I, N96D, P98A
B13: clone 299 rabbit anti-RANKL antibody (antibody, V domains shown)
VH: QSLEESGGRLVTPGTPLTLTCTVSGIDLSSSLMTWVRQAPGKGLEWIGYIWSGGAPFYASWAKGRFTISKTSSTTVDLKMTSLTTEDTATYFCAARYTDSGFDALDPWGPGTLVTVSS
VL: DMTQTPASVEAAVGGTVTIKCQASQSIGSYLSWYHQKPGQPPKLLIYRASTLASGVPSRFKGSGSGTQFTLTISDLECADAATYYCQQGYSANVDNAFGGGTEVVVK
B14: clone 318 rabbit anti-RANKL antibody (antibody, V domains shown)
VH: B2 VH with E2D, T30G, T31S, G55S, N61S, R96G, L98A, S99K
VL: B5 VL with I3T, E10S, V11A, G20N, S48G, E68H, T70A, L71F, D79T, S93G
B15: clone 379 rabbit anti-RANKL antibody (antibody, V domains shown)
VH: B9 VH with G26R, N30I, T31N, N32I, A33G, K43R, H77D, S95R, T97A, G99D
VL: B2 VL with T3I, N26S, G48L, A53P, S57P, P81A, S91T, I92A, P98A
B16: clone 388 rabbit anti-RANKL antibody (antibody, V domains shown)
VH: B4 VH with A55P, S60N
VL: B4 VL with L95V
B17: clone 565 rabbit anti-RANKL antibody (antibody, V domains shown)
VH: B2 VH with Q3D, V12I, A24G, T30S, T31S, N32D, G55S
VL: DMIQTPASVSEPVGGTVTINCQASQNIGSNLAWYQQKPGQPSKLLIYKASTLASGVPSRFKGSGSGTDFTLTISDLECADAATYYCQQAYTISNVDNAFGGGTEVVVK

molecular target: T1, human RANKL protein (human, UniProt O14788 140-317, limits assumed); assay: cell-based or functional assay
T1 sequence (looked up): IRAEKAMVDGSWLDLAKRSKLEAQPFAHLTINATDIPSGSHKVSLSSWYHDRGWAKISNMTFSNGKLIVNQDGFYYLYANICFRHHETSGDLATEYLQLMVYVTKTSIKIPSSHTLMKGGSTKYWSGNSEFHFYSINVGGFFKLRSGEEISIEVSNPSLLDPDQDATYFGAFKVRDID

**Q.** With B1 as the binder, how does the “IC50 in a RAW cell assay (TRAP activity, OD 405 nM)” value read?
**A.** The value was 0.00488 µg/mL.

molecular target: T1, human RANKL protein; assay: surface plasmon resonance

**Q.** For B1, which Kd is on record?
**A.** Its Kd is 0.589 nM.

**Q.** And the koff?
**A.** Its koff is 0.000273 s⁻¹.

**Q.** And the kon?
**A.** Its kon is 464000 M⁻¹ s⁻¹.

molecular target: T2, RANKL expressed on the surface of 293 cells (UniProt O14788 1-317, limits assumed); assay: flow cytometry (MFI) on RANKL-transfected 293 cells
T2 construct: whole, on cells; also called RANKL-transfected 293 cells; cells expressing RANKL
T2 sequence (looked up): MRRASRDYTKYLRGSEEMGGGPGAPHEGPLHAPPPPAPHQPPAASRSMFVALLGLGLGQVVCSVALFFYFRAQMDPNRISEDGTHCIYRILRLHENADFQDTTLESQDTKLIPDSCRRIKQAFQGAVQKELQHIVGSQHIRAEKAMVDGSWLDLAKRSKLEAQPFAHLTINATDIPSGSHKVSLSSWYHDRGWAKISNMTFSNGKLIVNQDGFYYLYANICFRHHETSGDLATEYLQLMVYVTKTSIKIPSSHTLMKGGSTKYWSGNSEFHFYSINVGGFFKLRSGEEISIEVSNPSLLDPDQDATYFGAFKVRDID

**Q.** With B1 as the binder, how does the EC50 read?
**A.** The EC50 was 0.0664 µg/mL.

**Q.** Which EC50 does the source give for B2 here?
**A.** The EC50 was 0.248 µg/mL.

**Q.** B3 was tested. Which EC50 did it give?
**A.** Its EC50 is 0.137 µg/mL.

**Q.** Which EC50 does the source give for B4 here?
**A.** Its EC50 is 0.21 µg/mL.

**Q.** For B5, which EC50 is on record?
**A.** The EC50 was 0.185 µg/mL.

**Q.** How did the EC50 turn out when B6 was run?
**A.** The EC50 was 0.0721 µg/mL.

molecular target: T2, RANKL expressed on the surface of 293 …; assay: as above; remark: another data set of the same source

**Q.** For B7, which EC50 is on record?
**A.** Its EC50 is 0.0858 µg/mL.

**Q.** With B8 as the binder, how does the EC50 read?
**A.** Its EC50 is 0.153 µg/mL.

**Q.** With B9 as the binder, how does the EC50 read?
**A.** Its EC50 is 0.2 µg/mL.

**Q.** For B10, which EC50 is on record?
**A.** Its EC50 is 1 µg/mL.

**Q.** How did the EC50 turn out when B11 was run?
**A.** Its EC50 is 0.135 µg/mL.

**Q.** For B12, which EC50 is on record?
**A.** The EC50 was 0.0751 µg/mL.

**Q.** For B13, which EC50 is on record?
**A.** The EC50 was 0.207 µg/mL.

**Q.** Which EC50 does the source give for B14 here?
**A.** Its EC50 is 0.164 µg/mL.

**Q.** B15 was tested. Which EC50 did it give?
**A.** Its EC50 is 0.221 µg/mL.

**Q.** For B16, which EC50 is on record?
**A.** The EC50 was 0.665 µg/mL.

molecular target: T2, RANKL expressed on the surface of 293 …; assay: as above; remark: another data set of the same source

**Q.** For B17, which EC50 is on record?
**A.** Its EC50 is 0.0831 µg/mL.

molecular target: T1, human RANKL protein; assay: competition ELISA: RANKL (0.5 ug/ml) pre-incubated with the antibody, then binding to coated human RANK (8 ug/ml) detected; blocked partner RANK

**Q.** How did the IC50 turn out when B1 was run?
**A.** Its IC50 is 0.0645 µg/mL.

**Q.** For B2, which IC50 is on record?
**A.** The IC50 was 0.0699 µg/mL.

**Q.** With B3 as the binder, how does the IC50 read?
**A.** Its IC50 is 0.0436 µg/mL.

**Q.** With B4 as the binder, how does the IC50 read?
**A.** The IC50 was 0.078 µg/mL.

**Q.** How did the IC50 turn out when B5 was run?
**A.** Its IC50 is 0.0766 µg/mL.

**Q.** How did the IC50 turn out when B6 was run?
**A.** Its IC50 is 0.0706 µg/mL.

molecular target: T1, human RANKL protein; assay: as above; remark: another data set of the same source

**Q.** B7 was tested. Which IC50 did it give?
**A.** The IC50 was 0.0643 µg/mL.

**Q.** How did the IC50 turn out when B8 was run?
**A.** The IC50 was 0.0648 µg/mL.

**Q.** Which IC50 does the source give for B9 here?
**A.** The IC50 was 0.0596 µg/mL.

**Q.** For B10, which IC50 is on record?
**A.** The IC50 was 0.486 µg/mL.

**Q.** How did the IC50 turn out when B11 was run?
**A.** The IC50 was 0.0508 µg/mL.

**Q.** For B12, which IC50 is on record?
**A.** The IC50 was 0.058 µg/mL.

molecular target: T1, human RANKL protein; assay: as above; remark: another data set of the same source

**Q.** For B13, which IC50 is on record?
**A.** The IC50 was 0.0907 µg/mL.

**Q.** How did the IC50 turn out when B14 was run?
**A.** Its IC50 is 0.0624 µg/mL.

**Q.** Which IC50 does the source give for B15 here?
**A.** Its IC50 is 0.0614 µg/mL.

**Q.** Which IC50 does the source give for B16 here?
**A.** The IC50 was 0.161 µg/mL.
